The values below come from PMC12104086, “Identification of a multiple DAMP scavenger mimicking the DAMP-binding site of TLR4 to ameliorate lethal sepsis” (Frontiers in Immunology, 2025).

The target in assay [1] is T1, recombinant mouse cold-inducible RNA-binding protein (mouse, UniProt P60824 1-172).
T1 construct: also called rmCIRP; eCIRP
T1 sequence (looked up): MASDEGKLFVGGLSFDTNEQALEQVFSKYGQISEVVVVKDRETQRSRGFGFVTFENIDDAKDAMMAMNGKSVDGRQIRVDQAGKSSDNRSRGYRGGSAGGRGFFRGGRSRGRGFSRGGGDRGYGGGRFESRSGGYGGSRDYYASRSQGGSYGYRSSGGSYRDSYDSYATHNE
Put plainly: SPR; OpenSPR (Nicoya); OP18 (10 µg/mL in 10 mM acetate pH 5) immobilised on channel 2, channel 1 as reference; analytes eCIRP 31.3-2,000 nM, HMGB1 10-450 nM, αvβ3 integrin 10-100 nM, histone H3 22.5-270 nM in HBST (10 mM HEPES, 150 mM NaCl, 0.005% P20, 5 mM EDTA, pH 7.4); 40 µL/min, 20°C; global fit 1:1. The settings on record: both partners purified. (Surface plasmon resonance follows binding to a sensor surface in real time, without labels.)

For assay [2], the target named is T2, recombinant human high mobility group box 1 (human, UniProt P09429 1-215).
T2 construct: human HMGB1, recombinant, bought; see the vendor's sheet; also called rhHMGB1; HMGB1; source: bought: R&D System (Cat. No. 1690-HMB-050)
T2 sequence (looked up): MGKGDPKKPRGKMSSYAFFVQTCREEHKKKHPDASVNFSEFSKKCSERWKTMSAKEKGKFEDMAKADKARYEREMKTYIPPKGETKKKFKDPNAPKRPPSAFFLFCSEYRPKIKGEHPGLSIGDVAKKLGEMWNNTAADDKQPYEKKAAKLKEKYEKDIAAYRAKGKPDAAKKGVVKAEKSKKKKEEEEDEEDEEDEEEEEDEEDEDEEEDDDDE
Described as above. The settings on record: both partners purified.

B1: opsonic peptide 18 (peptide)
peptide: GNFNSSNIMKTCLQNRGD
notes: also called OP18; source: synthetic peptide (GenScript)
On to B1, for which the binding result in assay [1] and in assay [2] was “binds” each time.
